Assays:
[1] = biological target: ephrin type-A receptor 2 (EphA2) on cells (human) (UniProt P29317); test: cell-based or functional assay
[2] = biological target: activated leukocyte cell adhesion molecule (ALCAM) on human cell lines (human) (UniProt Q13740); test: cell-based or functional assay
[3] = biological target: T1, recombinant human EphA2 (human, UniProt P29317 25-534); test: flow cytometry of yeast-displayed scFv with human recombinant EphA2, curve fit of normalized MFI (apparent KD)
T1 construct: also called human recombinant EphA2 protein
Excerpt: FIGS. 10A-10B graphically illustrate the selection and characterization of anti-EphA2 scFvs from yeast display mutagenesis libraries. FIG. 10A: Apparent KD measurement of four new EphA2 scFvs binding affinity to human recombinant EphA2 protein. In this experiment, RYRgerm is the germline version of RYR. The remaining samples were RYRgerm derivatives with high binding affinity. Apparent KD values were estimated by curve-fitting of normalized MFI values. FIG. 10B: Apparent KD measurement of four new EphA2 scFvs binding affinity to mouse recombinant EphA2-Fc fusion protein. Apparent KD values were estimated by curve-fitting of normalized MFI values.
(§1) This Example describes experiments performed to identify new versions of EphA2 binding scFv antibodies with improved binding affinity. The original EphA2 binding scFv RYR has been described previously in PCT/US2015/039741, in which EphA2 binding scFv RYR was named HCA-F1 and a germline version of RYR was named RYRgerm. To identify new versions of EphA2 binding scFv antibodies improved binding affinity for EphA2, yeast display mutagenesis libraries based on RYRgerm were generated and selected by FACS for higher affinity binders. Four new EphA2 scFvs with high binding affinity for EphA2 were identified and named […], RYRgerm_102919_15, RYRgerm_102919_22, and RYRgerm_102919_33, respectively. The amino acid sequences of VH and VL regions as well as the CDRs for these newly identified EphA2 scFvs are presented in Tables 4-5 and the Sequence Listing. In these eperiments, both human and mouse recombinant EphA2 proteins were used in selection to maintain cross-species binding. Apparent affinity was measured by flow cytometry for binding to both human and mouse EphA2.

[4] = biological target: T2, mouse recombinant EphA2-Fc fusion protein (mouse, UniProt Q03145 26-535, limits assumed); test: flow cytometry of yeast-displayed scFv with mouse recombinant EphA2-Fc, curve fit of normalized MFI (apparent KD)
T2 construct: also called mouse EphA2; not shown: Fc part
Excerpt: (§2) In this experiment, RYRgerm is the germline version of RYR. The remaining samples were RYRgerm derivatives with high binding affinity. Apparent KD values were estimated by curve-fitting of normalized MFI values. FIG. 10B: Apparent KD measurement of four new EphA2 scFvs binding affinity to mouse recombinant EphA2-Fc fusion protein. Apparent KD values were estimated by curve-fitting of normalized MFI values.
as §1

[5] = biological target: T1, recombinant human EphA2; test: flow cytometry of yeast-displayed scFv with recombinant human EphA2 at 0-100 nM
Excerpt: as §2
as §1, with “In these eperiments, both human and mouse recombinant EphA2 proteins were used in selection to maintain cross-species binding.” left out

[6] = biological target: T3, activated leukocyte cell adhesion molecule (ALCAM) on human cell lines (human, UniProt Q13740 28-583); test: FACS titration of the IgG1 on live DU145 cells, curve fit (apparent KD)
T3 construct: whole, on cells
T3 sequence (looked up): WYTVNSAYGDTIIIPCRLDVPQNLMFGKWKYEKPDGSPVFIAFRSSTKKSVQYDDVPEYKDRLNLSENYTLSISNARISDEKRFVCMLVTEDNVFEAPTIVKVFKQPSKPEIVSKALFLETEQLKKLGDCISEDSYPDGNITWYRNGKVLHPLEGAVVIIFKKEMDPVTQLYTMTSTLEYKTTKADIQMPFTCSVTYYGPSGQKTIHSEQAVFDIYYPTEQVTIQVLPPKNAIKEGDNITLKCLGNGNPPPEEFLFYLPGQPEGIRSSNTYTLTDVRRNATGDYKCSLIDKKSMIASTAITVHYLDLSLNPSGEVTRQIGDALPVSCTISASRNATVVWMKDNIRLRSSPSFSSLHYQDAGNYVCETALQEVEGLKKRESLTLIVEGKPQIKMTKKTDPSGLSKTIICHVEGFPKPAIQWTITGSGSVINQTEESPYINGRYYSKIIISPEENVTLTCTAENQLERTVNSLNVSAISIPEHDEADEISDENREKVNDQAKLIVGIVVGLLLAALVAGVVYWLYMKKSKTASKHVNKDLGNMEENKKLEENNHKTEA
Procedure: (§3) FIGS. 6A-6D graphically illustrate the selection and characterization of anti-ALCAM scFvs from phage display library. FIG. 6A: Enrichment of ALCAM-binding phage through three rounds of selection. Recombinant Fc-fusion of ALCAM-V domain was immobilized on magnetic beads and utilized for scFv phage display library selection. Enrichment was calculated by dividing phage output titer by input phage titer (y-axis on the left). Binding activity of polyclonal phages amplified from each round output was described as folds against the binding of the unselected phage library (y-axis on the right). FIG. 6B: After three rounds of selection, FACS was performed to screen out monoclonal phage binding to the ALCAM^high DU145 cell line. FIG. 6C: Apparent KD of 3F1 IgG on live ALCAM-expressing cells. DU145 cells were incubated with varying concentrations of 3F1 IgG at 4° C. overnight and analyzed by FACS using Alexa® 647-conjugated anti-human IgG. KD value was estimated by curve fitting using GraphPad Prism (GraphPad Software). FIG. 6D: Confocal microscopy study of cellular localization of anti-ALCAM 3F1 IgG. Tumor cell lines were seeded in chamber-well slide and incubated with 3F1 IgG at 37° C. for 2 hours. Antibodies were stained with Alexa® 647-conjugated anti-human antibody (red). […] ALCAM expression measured using 3F1 IgG was shown below microscopic images (lower panel). […]

[7] = biological target: T3, activated leukocyte cell adhesion …; test: FACS on live DU145 cells, 3F1 IgG at 4 C overnight, Alexa 647 anti-human IgG
Procedure: as §3

[8] = biological target: T4, ephrin type-A receptor 2 (EphA2) on cells (human, UniProt P29317 24-976); test: flow cytometry on DU145 cells, 1 h at 25 C, 40 pM to 125 nM, MFI curve fit (apparent KD)
T4 construct: whole, on cells
Procedure: (§4) In these experiments, apparent binding affinity of RYR IgG1 versus RYRgerm_102919_15 IgG1 on DU145 cells was evaluated. In these experiments, DU145 cells were incubated for 1 h at 25° C. with RYR or RYRgerm_102919_15 at a range of concentrations between 40 pM to 125 nM, washed, and binding detected with anti-human Alexa Fluor 647. MFI values were curve-fit to generate the apparent KD values.

[9] = biological target: T1, recombinant human EphA2; test: BLI (Probe Life Gator), IgG1 on anti-human Fc probes, 100 nM recombinant human EphA2, 25 C
[10] = biological target: T4, ephrin type-A receptor 2 (EphA2) on …; test: flow cytometry on DU145 cells (apparent KD)
Procedure: as §4

T1 sequence (P29317 25-534 limits assumed): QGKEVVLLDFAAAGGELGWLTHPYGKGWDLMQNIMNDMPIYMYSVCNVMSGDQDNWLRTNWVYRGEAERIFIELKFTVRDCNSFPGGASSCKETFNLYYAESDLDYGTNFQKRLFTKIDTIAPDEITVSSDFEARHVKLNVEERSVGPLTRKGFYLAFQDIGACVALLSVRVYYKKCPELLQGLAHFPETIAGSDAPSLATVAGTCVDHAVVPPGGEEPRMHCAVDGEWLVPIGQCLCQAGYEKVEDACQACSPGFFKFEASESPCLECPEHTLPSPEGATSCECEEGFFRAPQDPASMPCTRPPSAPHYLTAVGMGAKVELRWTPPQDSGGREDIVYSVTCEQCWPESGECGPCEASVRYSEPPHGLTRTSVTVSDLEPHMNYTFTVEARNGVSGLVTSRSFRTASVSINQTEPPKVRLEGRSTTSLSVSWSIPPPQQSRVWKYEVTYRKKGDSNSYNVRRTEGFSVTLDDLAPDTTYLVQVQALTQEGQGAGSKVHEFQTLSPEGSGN
T4 sequence (P29317 24-976): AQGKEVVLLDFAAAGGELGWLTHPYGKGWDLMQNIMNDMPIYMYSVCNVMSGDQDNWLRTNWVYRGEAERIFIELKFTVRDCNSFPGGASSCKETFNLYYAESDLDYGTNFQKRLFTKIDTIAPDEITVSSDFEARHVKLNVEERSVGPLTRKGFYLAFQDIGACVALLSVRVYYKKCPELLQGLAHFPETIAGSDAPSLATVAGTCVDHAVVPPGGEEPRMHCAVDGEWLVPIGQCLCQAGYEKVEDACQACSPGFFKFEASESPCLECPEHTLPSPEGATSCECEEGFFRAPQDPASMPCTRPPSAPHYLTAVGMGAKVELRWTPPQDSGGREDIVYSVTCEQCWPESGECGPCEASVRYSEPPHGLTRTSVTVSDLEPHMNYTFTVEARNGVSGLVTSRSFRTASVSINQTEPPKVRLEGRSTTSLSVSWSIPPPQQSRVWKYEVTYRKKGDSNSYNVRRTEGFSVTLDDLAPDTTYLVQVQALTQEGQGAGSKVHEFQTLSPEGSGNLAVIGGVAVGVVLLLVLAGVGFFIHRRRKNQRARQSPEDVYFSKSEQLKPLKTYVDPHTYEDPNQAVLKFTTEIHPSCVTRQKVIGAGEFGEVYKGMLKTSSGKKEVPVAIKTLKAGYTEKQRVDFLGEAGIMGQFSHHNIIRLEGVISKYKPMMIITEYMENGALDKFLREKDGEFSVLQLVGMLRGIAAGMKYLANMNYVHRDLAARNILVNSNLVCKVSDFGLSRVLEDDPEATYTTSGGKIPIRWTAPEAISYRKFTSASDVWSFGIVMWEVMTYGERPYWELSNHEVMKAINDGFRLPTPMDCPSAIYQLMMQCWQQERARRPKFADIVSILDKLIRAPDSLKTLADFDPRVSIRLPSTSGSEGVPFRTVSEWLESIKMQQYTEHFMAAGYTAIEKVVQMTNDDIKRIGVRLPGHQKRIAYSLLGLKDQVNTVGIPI
T2 sequence (Q03145 26-535 limits assumed): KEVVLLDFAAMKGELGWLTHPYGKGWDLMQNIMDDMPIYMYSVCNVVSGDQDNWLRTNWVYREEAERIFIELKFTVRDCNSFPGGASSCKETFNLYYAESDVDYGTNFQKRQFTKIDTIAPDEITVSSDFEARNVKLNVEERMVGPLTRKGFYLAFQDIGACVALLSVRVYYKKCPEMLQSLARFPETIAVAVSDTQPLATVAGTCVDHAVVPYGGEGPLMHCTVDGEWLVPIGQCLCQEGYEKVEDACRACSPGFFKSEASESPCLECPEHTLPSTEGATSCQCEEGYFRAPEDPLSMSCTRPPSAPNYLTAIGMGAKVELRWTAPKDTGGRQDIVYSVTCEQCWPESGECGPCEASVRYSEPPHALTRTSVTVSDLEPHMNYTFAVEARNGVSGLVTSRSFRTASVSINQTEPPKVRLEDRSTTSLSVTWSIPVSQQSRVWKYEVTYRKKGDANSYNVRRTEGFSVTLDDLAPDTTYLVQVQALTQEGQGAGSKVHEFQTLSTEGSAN
Chain of ephrin type-A receptor 2 (EphA2) on cells (human) (P29317 24-976): as the sequence (P29317 24-976) above

## control C10/RYR bsIgG (bispecific antibody)
[1]
  surface EphA2 removed from pancreatic cancer cells (FACS): 85%
[2]
  ALCAM Internalization (% over ctrl, Mean, n = 2); HEK293-EphA2#2 cells: 14.6 % over ctrl
  ALCAM Internalization (% over ctrl, Mean, n = 2); HEK293-EphA2#8 cells: 0.5 % over ctrl
  ALCAM Internalization (% over ctrl, Mean, n = 2); HEK293-EphA2#31 cells: 9.2 % over ctrl
  ALCAM Internalization (% over ctrl, Mean, n = 2); HEK293-EphA2#42 cells: -16.5 % over ctrl
  ALCAM Internalization (% over ctrl, Mean, n = 2); HEK293-EphA2#C9 cells: -9.6 % over ctrl
  ALCAM Internalization (% over ctrl, Mean, n = 2); HEK293-EphA2-0.02 cells: 28.6 % over ctrl
  ALCAM Internalization (% over ctrl, Mean, n = 2); HEK293-EphA2-0.1 cells: -22.4 % over ctrl
  ALCAM Internalization (% over ctrl, Mean, n = 2); HEK293-EphA2-0.5 cells: -36.3 % over ctrl
  ALCAM Internalization (% over ctrl, Mean, n = 2); HEK293-EphA2-2.5 cells: 7.1 % over ctrl
  ALCAM Internalization (% over ctrl, Mean, n = 2); HEK293-SiRNA2 cells: -6 % over ctrl
  ALCAM Internalization (% over ctrl, Mean, n = 2); HEK293-siRNA1 cells: -3.4 % over ctrl
  ALCAM Internalization (% over ctrl, Mean, n = 2); HEK293-siRNA3 cells: -4.4 % over ctrl
  ALCAM Internalization (% over ctrl, Mean, n = 2); HEK293 cells: 10.8 % over ctrl

B1: RYRgerm_102919_22 scFv (scFv)
scFv: EVQLVESGGGLVQPGGSLRLSCAASGFTFSSYSMNWVRQAPGKGLEWVSYISSSSSTIYYADSVKGRFTISRDNAKNSLYLQMNSLRAEDTAVYYCARYRLPNFWSGYPNYGMDVWGQGTTVTVSSGGGGSGGGGSGGGGSQSVLTQPPSVSGAPGQRVTISCTGSSSNIGAGYDVHWYQQLPGTAPKLLIYGNSNRPSGVPDRFSGSKSGTSASLAITGLQAEDEADYYCQSYDSSLSGHVVFGGGTKLTVL
[3]
  Kd: 28.1 nM
[4]
  Kd: 1.34 nM

B2: RYRgerm_102919_14 scFv (scFv)
scFv: EVQLVESGGGLVQPGGSLRLSCAASGFTSSSYSMNWVRQAPGKGLEWVSYISSSSSTIYYADSVKGRFTISRDNAKNSLYLQMNSLRAEDTAVYYCARYRLPNFWSGYPNYGMDVWGQGTTVTVSSGGGGSGGGGSGGGGSQSVLTQPPSVSGAPGQRVTISCTGSSSNIGAGYDVHWYQQLPGTAPKLLIYGNSNRPSGVPDRFSGSKSGTSASLAITGLQAEDEADYYCQSYDSSLSGHVVFGGGTKLTVL
notes: also called RYRgerm_102019_14
[3]
  Kd: 21.3 nM
[4]
  Kd: 2.12 nM

B3: RYRgerm_102919_15 scFv (scFv)
scFv: EVQLVESGGGLVQPGGSLRLSCAASGFTFSSYSMNWVRQAPGKGLEWVSYISSSSSTIYYADSVKGRFTISRDNAKNSLYLQMNSLRAEDTAVYYCARYRLPNFWSGYPNYGTDVWGQGTTVTVSSGGGGSGGGGSGGGGSQSVLTQPPSVSGAPGQRVTISCTGSSSNIGAGYDVHWYQQLPGTAPKLLIYGNSNRPSGVPDRFSGSKSGTSASLAITGLQAEDEADYYCQSYDSSLSGHVVFGGGTKLTVL
[3]
  Kd: 5.58 nM
[4]
  Kd: 2.01 nM
[5]
  EC50 (read off the curve): ~5 nM

B4: RYRgerm_102919_33 scFv (scFv)
scFv: EVQLVESGGGLVQPGGSLRLSCAASGFTFSSYSMNWVRQAPGKGLEWVSYISSSSSTIYYADSVKGRFTISRDNAKNSLYLQMNSLRAEDTAVYYCARYRFPDFWSGYPNYGMDVWGQGTTVTVSSGGGGSGGGGSGGGGSQSVLTQPPSVSGAPGQRVTISCTGSSSNIGAGYDVHWYQQLPGTAPKLLIYGNSNRPSGVPDRFSGSKSGTSASLAITGLQAEDEADYYCQSYDSSLSGHVVFGGGTKLTVL
[3]
  Kd: 42.5 nM
[4]
  Kd: 2.87 nM

B5: anti-ALCAM 3F1 IgG1 (antibody, V domains shown)
VH: EVQLVESGGGLVKPGGSLRLSCAASGFTLSDYSMNWVRQAPGKGLEWVASISSRSSYIYYADSVKGRFTISRDNAKNSLYLGMNSLRAEDTAVYYCTGGQGYSGYDGFQHWGQGTLVTVSS
VL: QSALTQPPSASGTPGQRVTISCSGSSSNIGSNSVSWYQQLPGTAPKLLIYSNTHRPSGVPDRFSGSKSGTSASLAISGLLSEDEADYYCASWDDSLNGGVFGGGTQLTVL
notes: also called anti-ALCAM mAb 3F1
[6]
  Kd: 0.0206 nM
[7]
  EC50 (read off the curve): ~0.02 nM

B6: RYRgerm scFv (scFv)
chain: EVQLVESGGGLVQPGGSLRLSCAASGFTFSSYSMNWVRQAPGKGLEWVSYISSSSSTIYYADSVKGRFTISRDNAKNSLYLQMNSLRAEDTAVYYCARYRLPDFWSGYPNYGMDVWGQGTTVTVSSGGGGSGGGGSGGGGSQSVLTQPPSVSGAPGQRVTISCTGSSSNIGAGYDVHWYQQLPGTAPKLLIYGNSNRPSGVPDRFSGSKSGTSASLAITGLQAEDEADYYCQSYDSSLSGHVVFGGGTKLTVL
[3]
  Kd: 355 nM
[4]
  Kd: 115 nM

B7: RYR IgG1 (antibody, V domains shown)
VH: QVQLQESGGGLVQPGGSLRLSCAASGFTFSSYSMNWVRQAPGKGLEWVSYISSSSSTIYYADSVKGRFTISRDNAKNSLYLQMNSLRAEDTAVYYCARYRLPDFWSGYPNYGMDVWGQGTTVTVSS
VL: QSVLTQPPSVSGAPGQRVTISCTGSSSNIGAGYDVHWYQQLPGTAPKLLIYGNSNRPSGVPDRFSGSKSGTSASLAITGLQAEDEADYYCQSYDSSLSGHVVFGGGT
notes: Recombinant human IgG1 built from the original EphA2 scFv RYR; also called original RYR; HCA-F1
[8]
  Kd: 23.7 nM
[9]
  Kd: ~28 nM
  koff: 0.0145 s⁻¹
  kon: 518000 M⁻¹ s⁻¹

B8: RYRgerm_102919_15 IgG1 (antibody, V domains shown)
VH: EVQLVESGGGLVQPGGSLRLSCAASGFTFSSYSMNWVRQAPGKGLEWVSYISSSSSTIYYADSVKGRFTISRDNAKNSLYLQMNSLRAEDTAVYYCARYRLPNFWSGYPNYGTDVWGQGTTVTVSS
VL: QSVLTQPPSVSGAPGQRVTISCTGSSSNIGAGYDVHWYQQLPGTAPKLLIYGNSNRPSGVPDRFSGSKSGTSASLAITGLQAEDEADYYCQSYDSSLSGHVVFGGGTKLTVL
notes: Recombinant human IgG1 built from the scFv RYRgerm_102919_15
[10]
  fold increase in binding affinity against RYR IgG1: ~100 fold
[8]
  Kd: 0.23 nM
[9]
  Kd: ~5 nM
  fold increase in binding affinity against RYR IgG1: ~5 fold
  koff: 0.00132 s⁻¹
  kon: 262000 M⁻¹ s⁻¹
